Measurements as given in paper PMC4373793.
Several values for one entry are separate records, joined by “and”; a condition that tells them apart may be missing. Identical values can stand only once.

Experiments:
[1] = target: Streptococcal surface enolase (SEN), wild-type, group A Streptococcus (Streptococcus pyogenes) (Streptococcus pyogenes (group A Streptococcus)) (UniProt P69949); assay: native MS; Superdex-200 in 200 mM NH4OAc pH 6.8, peak fractions pooled, Synapt HDMS under conditions that preserve non-covalent interactions; single peak of wild type and K312A, elution peak 1 of K362A
[2] = target: Human Glu-plasminogen (circulating form of human plasminogen) (human); assay: ELISA; plate coated with serial dilutions of Glu-plasminogen (carbonate buffer pH 9.6); wells incubated with 5 ug wild-type or mutant SEN; apparent KD, one-site specific binding
[3] = target: Streptococcal surface enolase (SEN), wild-type, group A Streptococcus (Streptococcus pyogenes) (Streptococcus pyogenes (group A Streptococcus)) (UniProt P69949); assay: crystal structure; hanging drop, 1-3.5 M sodium/potassium phosphate pH 5-7.5, 2% PEG 400; space group P4; octamer = tetramer of dimers
[4] = target: Streptococcal surface enolase mutant SEN^K312A (Streptococcus pyogenes (group A Streptococcus)) (UniProt P69949); assay: native MS; Superdex-200 in 200 mM NH4OAc pH 6.8, peak fractions pooled, Synapt HDMS under conditions that preserve non-covalent interactions; single peak of wild type and K312A, elution peak 1 of K362A
[5] = target: Human Glu-plasminogen (circulating form of human plasminogen) (human); assay: SPR; BIAcore 3000; Glu-plasminogen immobilised on a CM5 chip (~10,000 RU; also a lower-density surface ~1,000 RU); 100 nM SEN injected 500 s at room temperature in 10 mM HEPES pH 7.4, 0.15 M NaCl, 3 mM EDTA, 0.005% P20, 30 ul/min; kinetic models could not be fitted, assessed qualitatively
[6] = target: Streptococcal surface enolase mutant SEN^K312A (Streptococcus pyogenes (group A Streptococcus)) (UniProt P69949); assay: crystal structure; hanging drop, 1-3.5 M sodium/potassium phosphate pH 5-7.5, 2% PEG 400; space group P4; octamer = tetramer of dimers
[7] = target: Streptococcal surface enolase mutant SEN^K362A (Streptococcus pyogenes (group A Streptococcus)) (UniProt P69949); assay: native MS; Superdex-200 in 200 mM NH4OAc pH 6.8, peak fractions pooled, Synapt HDMS under conditions that preserve non-covalent interactions; single peak of wild type and K312A, elution peak 1 of K362A
[8] = target: Streptococcal surface enolase mutant SEN^K362A (Streptococcus pyogenes (group A Streptococcus)) (UniProt P69949); assay: crystal structure; hanging drop, 1-3.5 M sodium/potassium phosphate pH 5-7.5, 2% PEG 400; space group P4; octamer = tetramer of dimers

| Substance | stoichiometry N [1] | Kd [2] [nM] | stoichiometry N [3] | stoichiometry N [4] | percent increase in plasminogen binding (against wild-type SEN) [5] [%] | stoichiometry N [6] | stoichiometry N [7] | stoichiometry N [8] |
| --- | --- | --- | --- | --- | --- | --- | --- | --- |
| Streptococcal surface enolase (SEN), wild-type, group A Streptococcus (Streptococcus pyogenes) (from UniProt P69949 1-435) (enzyme) | 8 | 14.1 | 8 | – | – | – | – | – |
| Streptococcal surface enolase mutant SEN^K312A (from UniProt P69949 1-435) (enzyme) | – | 19.3 | – | 8 | 196 | 8 | – | – |
| Streptococcal surface enolase mutant SEN^K362A (from UniProt P69949 1-435) (enzyme) | – | 1.85 | – | – | 341 | – | 8 and 7 | 8 |
